According to patent publication US20210238260:

B1: FIXa R318Y/R338E/T412A (protein)
chain 1: YNSGKLEEFVQGNLERECMEEKCSFEEAREVFENTERTTEFWKQYVDGDQCESNPCLNGGSCKDDINSYECWCPFGFEGKNCELDVTCNIKNGRCEQFCKNSADNKVVCSCTEGYRLAENQKSCEPAVPFPCGRVSVSQTSKLTR
chain 2: VVGGEDAKPGQFPWQVVLNGKVDAFCGGSIVNEKWIVTAAHCVETGVKITVVAGEHNIEETEHTEQKRNVIRIIPHHNYNAAINKYNHDIALLELDEPLVLNSYVTPICIADKEYTNIFLKFGSGYVSGWGRVFHKGYSALVLQYLRVPLVDRATCLESTKFTIYNNMFCAGFHEGGRDSCQGDSGGPHVTEVEGTSFLTGIISWGEECAMKGKYGIYTKVSRYVNWIKEKAKLT
B2: FIXa D104N/K106S/N260S/R318Y/R338E/R403E/E410N (protein)
chain 1: YNSGKLEEFVQGNLERECMEEKCSFEEAREVFENTERTTEFWKQYVDGDQCESNPCLNGGSCKDDINSYECWCPFGFEGKNCELDVTCNIKNGRCEQFCKNSANNSVVCSCTEGYRLAENQKSCEPAVPFPCGRVSVSQTSKLTR
chain 2: VVGGEDAKPGQFPWQVVLNGKVDAFCGGSIVNEKWIVTAAHCVETGVKITVVAGEHNIEETEHTEQKRNVIRIIPHHNYSAAINKYNHDIALLELDEPLVLNSYVTPICIADKEYTNIFLKFGSGYVSGWGRVFHKGYSALVLQYLRVPLVDRATCLESTKFTIYNNMFCAGFHEGGRDSCQGDSGGPHVTEVEGTSFLTGIISWGEECAMKGKYGIYTKVSEYVNWIKNKTKLT
B3: FIXa Y155F/N260S/R318Y/R338E/R403E/E410N (protein)
chain 1: YNSGKLEEFVQGNLERECMEEKCSFEEAREVFENTERTTEFWKQYVDGDQCESNPCLNGGSCKDDINSYECWCPFGFEGKNCELDVTCNIKNGRCEQFCKNSADNKVVCSCTEGYRLAENQKSCEPAVPFPCGRVSVSQTSKLTR
chain 2: VVGGEDAKPGQFPWQVVLNGKVDAFCGGSIVNEKWIVTAAHCVETGVKITVVAGEHNIEETEHTEQKRNVIRIIPHHNYSAAINKYNHDIALLELDEPLVLNSYVTPICIADKEYTNIFLKFGSGYVSGWGRVFHKGYSALVLQYLRVPLVDRATCLESTKFTIYNNMFCAGFHEGGRDSCQGDSGGPHVTEVEGTSFLTGIISWGEECAMKGKYGIYTKVSEYVNWIKNKTKLT
B4: FIXa D104N/K106S/Y155F/K247N/N249S/N260S (protein)
chain 1: YNSGKLEEFVQGNLERECMEEKCSFEEAREVFENTERTTEFWKQYVDGDQCESNPCLNGGSCKDDINSYECWCPFGFEGKNCELDVTCNIKNGRCEQFCKNSANNSVVCSCTEGYRLAENQKSCEPAVPFPCGRVSVSQTSKLTR
chain 2: VVGGEDAKPGQFPWQVVLNGKVDAFCGGSIVNEKWIVTAAHCVETGVKITVVAGEHNIEETEHTEQNRSVIRIIPHHNYSAAINKYNHDIALLELDEPLVLNSYVTPICIADKEYTNIFLKFGSGYVSGWGRVFHKGRSALVLQYLRVPLVDRATCLRSTKFTIYNNMFCAGFHEGGRDSCQGDSGGPHVTEVEGTSFLTGIISWGEECAMKGKYGIYTKVSRYVNWIKEKTKLT
B5: FIXa R318Y/R338E/E410N/T412V (protein)
chain 1: YNSGKLEEFVQGNLERECMEEKCSFEEAREVFENTERTTEFWKQYVDGDQCESNPCLNGGSCKDDINSYECWCPFGFEGKNCELDVTCNIKNGRCEQFCKNSADNKVVCSCTEGYRLAENQKSCEPAVPFPCGRVSVSQTSKLTR
chain 2: VVGGEDAKPGQFPWQVVLNGKVDAFCGGSIVNEKWIVTAAHCVETGVKITVVAGEHNIEETEHTEQKRNVIRIIPHHNYNAAINKYNHDIALLELDEPLVLNSYVTPICIADKEYTNIFLKFGSGYVSGWGRVFHKGYSALVLQYLRVPLVDRATCLESTKFTIYNNMFCAGFHEGGRDSCQGDSGGPHVTEVEGTSFLTGIISWGEECAMKGKYGIYTKVSRYVNWIKNKVKLT
B6: FIXa D104N/K106S/K247N/N249S/N260S (protein)
chain 1: YNSGKLEEFVQGNLERECMEEKCSFEEAREVFENTERTTEFWKQYVDGDQCESNPCLNGGSCKDDINSYECWCPFGFEGKNCELDVTCNIKNGRCEQFCKNSANNSVVCSCTEGYRLAENQKSCEPAVPFPCGRVSVSQTSKLTR
chain 2: VVGGEDAKPGQFPWQVVLNGKVDAFCGGSIVNEKWIVTAAHCVETGVKITVVAGEHNIEETEHTEQNRSVIRIIPHHNYSAAINKYNHDIALLELDEPLVLNSYVTPICIADKEYTNIFLKFGSGYVSGWGRVFHKGRSALVLQYLRVPLVDRATCLRSTKFTIYNNMFCAGFHEGGRDSCQGDSGGPHVTEVEGTSFLTGIISWGEECAMKGKYGIYTKVSRYVNWIKEKTKLT
B7: FIXa Y155F/K247N/N249S/N260S (protein)
chain 1: YNSGKLEEFVQGNLERECMEEKCSFEEAREVFENTERTTEFWKQYVDGDQCESNPCLNGGSCKDDINSYECWCPFGFEGKNCELDVTCNIKNGRCEQFCKNSADNKVVCSCTEGYRLAENQKSCEPAVPFPCGRVSVSQTSKLTR
chain 2: VVGGEDAKPGQFPWQVVLNGKVDAFCGGSIVNEKWIVTAAHCVETGVKITVVAGEHNIEETEHTEQNRSVIRIIPHHNYSAAINKYNHDIALLELDEPLVLNSYVTPICIADKEYTNIFLKFGSGYVSGWGRVFHKGRSALVLQYLRVPLVDRATCLRSTKFTIYNNMFCAGFHEGGRDSCQGDSGGPHVTEVEGTSFLTGIISWGEECAMKGKYGIYTKVSRYVNWIKEKTKLT
B8: FIXa Y155F/R318Y/R338E/N346D/R403E/E410N (protein)
chain 1: YNSGKLEEFVQGNLERECMEEKCSFEEAREVFENTERTTEFWKQYVDGDQCESNPCLNGGSCKDDINSYECWCPFGFEGKNCELDVTCNIKNGRCEQFCKNSADNKVVCSCTEGYRLAENQKSCEPAVPFPCGRVSVSQTSKLTR
chain 2: VVGGEDAKPGQFPWQVVLNGKVDAFCGGSIVNEKWIVTAAHCVETGVKITVVAGEHNIEETEHTEQKRNVIRIIPHHNYNAAINKYNHDIALLELDEPLVLNSYVTPICIADKEYTNIFLKFGSGYVSGWGRVFHKGYSALVLQYLRVPLVDRATCLESTKFTIYDNMFCAGFHEGGRDSCQGDSGGPHVTEVEGTSFLTGIISWGEECAMKGKYGIYTKVSEYVNWIKNKTKLT
B9: FIXa N260S/R318Y/R338E/R403E/E410N (protein)
chain 1: YNSGKLEEFVQGNLERECMEEKCSFEEAREVFENTERTTEFWKQYVDGDQCESNPCLNGGSCKDDINSYECWCPFGFEGKNCELDVTCNIKNGRCEQFCKNSADNKVVCSCTEGYRLAENQKSCEPAVPFPCGRVSVSQTSKLTR
chain 2: VVGGEDAKPGQFPWQVVLNGKVDAFCGGSIVNEKWIVTAAHCVETGVKITVVAGEHNIEETEHTEQKRNVIRIIPHHNYSAAINKYNHDIALLELDEPLVLNSYVTPICIADKEYTNIFLKFGSGYVSGWGRVFHKGYSALVLQYLRVPLVDRATCLESTKFTIYNNMFCAGFHEGGRDSCQGDSGGPHVTEVEGTSFLTGIISWGEECAMKGKYGIYTKVSEYVNWIKNKTKLT

Target: Factor X, P00742
Sequence (P00742 whole entry, looked up): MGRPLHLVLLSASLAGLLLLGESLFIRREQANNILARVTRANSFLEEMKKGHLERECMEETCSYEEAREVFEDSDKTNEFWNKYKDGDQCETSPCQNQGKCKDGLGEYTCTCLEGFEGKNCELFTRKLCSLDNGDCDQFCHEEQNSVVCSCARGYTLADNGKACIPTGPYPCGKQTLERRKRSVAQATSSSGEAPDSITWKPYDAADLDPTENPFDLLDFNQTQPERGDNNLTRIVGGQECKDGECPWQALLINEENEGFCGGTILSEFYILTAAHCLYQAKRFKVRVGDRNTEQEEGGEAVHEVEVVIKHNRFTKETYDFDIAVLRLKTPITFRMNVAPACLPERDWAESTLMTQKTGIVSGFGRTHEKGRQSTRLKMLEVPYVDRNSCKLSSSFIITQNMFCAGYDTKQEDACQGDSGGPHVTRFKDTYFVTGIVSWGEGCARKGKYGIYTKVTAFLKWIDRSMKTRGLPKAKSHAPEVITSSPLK

| Protein | % of WT kcat/KM [%] | KM (FX activation by FIXa in Xase complex with FVIIIa, PC/PS vesicles, Ca2+) [nM] | kcat/KM [M⁻¹ s⁻¹] |
| --- | --- | --- | --- |
| B1 | 642 | 23.5 | 3e+08 |
| B2 | 190 | 61.1 | 8.8e+07 |
| B3 | 152 | 83.9 | 7e+07 |
| B4 | 18 | 68.5 | 8.2e+06 |
| B5 | 571 | 23.6 | 2.6e+08 |
| B6 | 21 | 61.2 | 9.8e+06 |
| B7 | 42 | 96.5 | 1.9e+07 |
| B8 | 135 | 100 | 6.2e+07 |
| B9 | 114 | 72.4 | 5.3e+07 |
